From patent US20030088057A1, “PEPTIDE SUBSTRATES PHOSPHORYLATED BY P21-ACTIVAGED PROTEIN KINASE STATEMENT REGARDING FEDERALLY SPONSORED REASEARCH OR DEVELOPMENT” (priority 1998, published 2003) come the findings set out here.

This assay deals with γ-PAK. Description: Phosphorylation of protein substrates by γ-PAK. Format: biochemical, rabbit. The conditions noted are these: for 32P incorporated: 2 μg protein substrate, 20 units active γ-PAK, 15 min at 30° C.; for rel rate: relative to histone 2B = 100. On the procedure:
D. Phosphorylation Assays. Phosphorylation of protein substrates was carried out in 35 μL reaction mixtures containing 20 mM Tris-HCl, pH 7.4, 10 mM MgCl2, 30 mM 2-mercaptoethanol, 0.2 mM ATP (specific activity =1000 cpm/pmol), 2 μg of protein substrate, and 20 units of active γ-PAK (an enzyme unit is defined as the amount of enzyme that incorporates 1 pmol of phosphate into histone IIAS/ min at 30°. Under these conditions, phosphate incorporation was linear and initial rates of phosphorylation were measured. After incubation at 30° C. for 15 min, reactions were terminated by the addition of 5 μL of 100 mM nonlabeled ATP and sample buffer for gel electrophoresis [Hathaway, G. M., et al., Methods Enzymol., 60:495-511 (1979)]. Reaction mixtures were subjected to SDS-PAGE on 15% polyacrylamide gels followed by autoradiography. Phosphorylation was quantified by excising the protein band and counting the incorporated ^32P in a liquid scintillation counter. The specific activity of γ-PAK was 400 pmol min^−1 μg^−1 as reported previously using 0.2 mM ATP and 1 mg/mL mixed histone as substrate [Rooney, R. D., et al., (1996), supra].
A number of proteins were examined as substrates, and their relative rates of phosphorylation were compared (Table 6).

Sequence of γ-PAK (Q29502 249-524 limits assumed): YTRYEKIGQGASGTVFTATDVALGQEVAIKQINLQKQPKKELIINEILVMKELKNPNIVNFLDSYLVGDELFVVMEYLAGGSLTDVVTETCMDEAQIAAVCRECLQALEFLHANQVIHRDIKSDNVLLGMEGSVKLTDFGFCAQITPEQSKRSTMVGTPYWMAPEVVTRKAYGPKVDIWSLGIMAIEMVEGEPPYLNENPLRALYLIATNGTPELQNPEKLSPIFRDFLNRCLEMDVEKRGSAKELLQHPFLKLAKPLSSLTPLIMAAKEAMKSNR

B1: prolactin: rat prolactin (protein)
chain: LPVCSGGDCQTPLPELFDRVVMLSHYIHTLYTDMFIEFDKQYVQDREFIAKAINDCPTSSLATPEDKEQAQKVPPEVLLNLILSLVHSWNDPLFQLITGLGGIHEAPDAIISRAKEIEEQNKRLLEGIEKIISQAYPEAKGNEIYLVWSQLPSLQGVDEESKDLAFYNNIRCLRRDSHKVDNYLKFLRCQIVHKNNC
The molecule B1 came in with a 32P incorporated of 1.8 pmol and a rel rate of 17%.

B2: myelin basic protein: bovine myelin basic protein, purchased from Sigma (protein)
chain: AAQKRPSQRSKYLASASTMDHARHGFLPRHRDTGILDSLGRFFGSDRGAPKRGSGKDGHHAARTTHYGSLPQKAQGHRPQDENPVVHFFKNIVTPRTPPPSQGKGRGLSLSRFSWGAEGQKPGFGYGGRASDYKSAHKGLKGHDAQGTLSKIFKLGGRDSRSGSPMARR
B2 showed a 32P incorporated of 4.2 pmol and a rel rate of 37%.
